# Experimental data: publication doi:10.1101/2025.11.24.690153
# Where two headings read alike, the source gives them in different places.
# T1: GtComGD (Geobacillus thermodenitrificans, UniProt A0ABY9Q9R4 29-145)
# T1 sequence: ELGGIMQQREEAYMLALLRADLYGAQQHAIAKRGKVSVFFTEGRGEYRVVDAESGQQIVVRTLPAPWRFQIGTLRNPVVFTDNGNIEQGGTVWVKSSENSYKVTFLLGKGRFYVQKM
# T2: BsComGC (Bacillus subtilis PY79, UniProt P25955 28-98)
# T2 sequence: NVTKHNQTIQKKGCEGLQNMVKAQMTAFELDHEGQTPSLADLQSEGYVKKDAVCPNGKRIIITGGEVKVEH
# Columns and labels:
# GtComGD [1] = molecular target: T1, GtComGD; assay: EMSA
# GtComGD [2] = molecular target: T1, GtComGD; assay: BLI
# [3] = molecular target: Geobacillus thermodenitrificans His-MBP-ComGC (Geobacillus thermodenitrificans); assay: SEC
# [4] = molecular target: Geobacillus thermodenitrificans His-MBP-ComGC (Geobacillus thermodenitrificans); assay: SEC; remark: listed apart in the source
# [5] = molecular target: Geobacillus thermodenitrificans His-MBP-ComGD (Geobacillus thermodenitrificans); assay: SEC
# [6] = molecular target: Geobacillus thermodenitrificans His-MBP-ComGD (Geobacillus thermodenitrificans); assay: SEC; remark: listed apart in the source
# [7] = molecular target: Geobacillus thermodenitrificans His-MBP-ComGD (Geobacillus thermodenitrificans); assay: SEC; remark: listed apart in the source
# BsComGC [8] = molecular target: T2, BsComGC; assay: pull-down
# BsComGC [9] = molecular target: T2, BsComGC; assay: EMSA
molecule,measurement,setting,value
40 bp dsDNA (EMSA),Kd,GtComGD [1],20 µM
2000 bp dsDNA (BLI),Kd,GtComGD [2],96 µM
Geobacillus thermodenitrificans His-MBP-ComGC (domain or fragment),stoichiometry N,[3],2
same,stoichiometry N,[4],2
Geobacillus thermodenitrificans His-MBP-ComGD (domain or fragment),stoichiometry N,[5],2
same,stoichiometry N,[6],2
same,stoichiometry N,[7],2
AAAAAAAAAAAA (ssDNA) [12 nt polyA ssDNA],binding result,BsComGC [8],binds
"TTTTTTTTTTTTTTTTTTTTTTCCCACAACAAGCCACCCG (ssDNA) [unstructured ssDNA (BLI, Fig. S3A)]",Kd,GtComGD [2],53 µM
"TTTTTTTTTTTTTTTTTTTTTTCCCACAACAAGCCACCCG (ssDNA) [40 nt ssDNA (EMSA, Fig. S3A)]",Kd,GtComGD [1],~13.6 µM
same,Kd,BsComGC [9],~100 µM
